Assay results from the supplement of paper PMC6757056.
± gives the standard deviation of the averaged measurements.

B1: library; a variant is named by its letters at N, in order (parent)
chain: GCUGUCACCGGUGCUUGGUACGUUAUAUUCAGCCGGUCUGAUGAGUCUNNNNNNAGACGAAACAGC

Columns and labels:
(6R,S)-folinic acid [1] = variants of: B1; assay: normalized RNA/DNA level without ligand (relative to sTRSVctl = 100) (log10 (% of sTRSVctl)); HEK293T overexpressing SLC46A1; higher = less ribozyme self-cleavage, higher mRNA level; conditions: without (6R,S)-folinic acid; ligand present: no
Procedure, shortened: (§1)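 Only sequences with at least 100 DNA reads were analyzed, from HEK293T cells transfected with 4 µg per 6-well well of ribozyme switch library plasmids 72 h before RNA extraction with EDTA. Any ligand was added 1 h before transfection. RNA level was defined as RNA over DNA reads, normalized to a spiked-in non-cleaving sequence or to the top sequences, then scaled and log-transformed. The top set was 25 sequences, and the scaling was ×100 followed by log10.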

(6R,S)-folinic acid [2] = variants of: B1; assay: normalized RNA/DNA level with ligand (relative to sTRSVctl = 100) (log10 (% of sTRSVctl)); HEK293T overexpressing SLC46A1; ligand concentration (+) RNA-Seq: 6 mM; higher = less ribozyme self-cleavage, higher mRNA level; conditions: with (6R,S)-folinic acid; ligand present: yes
Procedure, shortened: as §1

Variant | normalized RNA/DNA level without ligand (log10) ((6R,S)-folinic acid [1]) | normalized RNA/DNA level with ligand (log10) ((6R,S)-folinic acid [2])
GGCGCG | 2.085 ± 0.011 | 2.06 ± 0.05
GGCGCC | 2.093 ± 0.017 | 2.07 ± 0.023
GGCGCU | 2.113 ± 0.014 | 2.1 ± 0.057
GGCGCA | 2.06 ± 0.0043 | 2.051 ± 0.019
AGCAAG | 1.935 ± 0.0032 | 2.01 ± 0.025
AGCAAC | 2.004 ± 0.0095 | 2.01 ± 0.038
AGCAAU | 1.995 ± 0.0032 | 2.01 ± 0.033
UGCCAU | 1.982 ± 0.0048 | 2 ± 0.021
UGCCAG | 1.812 ± 0.0093 | 1.9581 ± 0.00078
CGCAAU | 1.9357 ± 0.0015 | 1.968 ± 0.014
CGCAAA | 1.9697 ± 0.001 | 1.988 ± 0.0069
CGCAAG | 2.011 ± 0.0045 | 2.02 ± 0.025
GGAGUC | 2.02 ± 0.023 | 2.01 ± 0.024
GGAGUU | 2.011 ± 0.0026 | 2.05 ± 0.039
GGAGUG | 1.915 ± 0.004 | 2.01 ± 0.029
UGCGCA | 1.951 ± 0.002 | 1.98 ± 0.033
UGCGCC | 2.07 ± 0.015 | 2.043 ± 0.0087
UGCGCG | 1.81 ± 0.046 | 1.99 ± 0.056
CGCAGG | 1.953 ± 0.012 | 2.03 ± 0.039
CGCAGU | 2.037 ± 0.015 | 2.04 ± 0.049

Variant | normalized RNA/DNA level without ligand (log10) ((6R,S)-folinic acid [1]) | normalized RNA/DNA level with ligand (log10) ((6R,S)-folinic acid [2])
CGCAGA | 2.039 ± 0.0068 | 2.051 ± 0.015
CGAGGC | 2.03 ± 0.013 | 2.04 ± 0.031
CGAGGU | 2.02 ± 0.02 | 2.02 ± 0.054
CGAGGA | 2.019 ± 0.0022 | 2.04 ± 0.029
AGAUAC | 1.983 ± 0.0026 | 2.022 ± 0.02
AGAUAU | 1.97 ± 0.011 | 2.04 ± 0.038
AGAUAG | 1.9299 ± 0.00079 | 2.01 ± 0.041
GGCCAG | 2.037 ± 0.0046 | 2.016 ± 0.02
GGCCAC | 2.022 ± 0.0039 | 1.99 ± 0.016
AGCAUG | 1.957 ± 0.004 | 2.03 ± 0.018
AGCAUC | 2.082 ± 0.012 | 2.0495 ± 0.0016
AGCAUU | 2.012 ± 0.0048 | 2.01 ± 0.028
AGCAUA | 1.985 ± 0.014 | 2.017 ± 0.016
AGCGUA | 1.973 ± 0.0096 | 2 ± 0.028
GGAGAG | 1.85 ± 0.02 | 1.97 ± 0.038
AGAUGU | 1.971 ± 0.0095 | 2.02 ± 0.036
AGAUGC | 2.017 ± 0.0026 | 2.03 ± 0.021
AGCACG | 1.99 ± 0.033 | 2.025 ± 0.01
AGCACC | 2.08 ± 0.031 | 2 ± 0.03
AGCACA | 2.0177 ± 0.00097 | 2 ± 0.04

Variant | normalized RNA/DNA level without ligand (log10) ((6R,S)-folinic acid [1]) | normalized RNA/DNA level with ligand (log10) ((6R,S)-folinic acid [2])
GGAUCC | 2.0688 ± 0.00086 | 2.06 ± 0.037
GGAUCU | 2.037 ± 0.0059 | 2.03 ± 0.045
GGAUCA | 2.02 ± 0.021 | 2.03 ± 0.05
GGAUCG | 2.0373 ± 0.00033 | 2.08 ± 0.045
UGCCCU | 2.061 ± 0.0087 | 2.06 ± 0.043
UGCCCA | 2.007 ± 0.0092 | 1.99 ± 0.018
UGCCCC | 2.03 ± 0.04 | 2.01 ± 0.07
UGCCCG | 1.95 ± 0.022 | 2.01 ± 0.07
UGAGCA | 1.95 ± 0.014 | 2.0212 ± 0.00076
UGAGCC | 2.038 ± 0.0055 | 2.04 ± 0.041
AGCCUC | 2.049 ± 0.012 | 2.03 ± 0.029
AGCCUU | 2.0374 ± 0.0006 | 2.02 ± 0.037
CGCAUC | 2.08 ± 0.021 | 1.97 ± 0.036
CGCAUG | 2.01 ± 0.019 | 2.01 ± 0.022
AGAGGG | 1.78 ± 0.02 | 2.01 ± 0.015
AGAGGA | 1.929 ± 0.014 | 2.02 ± 0.039
AGAGGC | 2.018 ± 0.02 | 2.01 ± 0.04
AGAGGU | 1.889 ± 0.0033 | 2 ± 0.076
